Data: the nanobody polyreactivity screen of Harvey et al. (2022)

Assay: yeast display, Sf9 membrane polyspecificity reagent, FACS + sequencing; frameworks hold sequencing errors
Summary of the method: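 A nanobody's polyreactivity label depends on the gate it was sorted from. Yeast display cells were stained with 10% biotinylated, detergent-solubilized Sf9 membrane reagent for 1 hour at 4 °C, enriched on streptavidin microbeads and sorted by FACS. The low and high (top ~1%) gates were set on anti-HA fluorescence for expression and streptavidin fluorescence for reagent binding.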

Sequence	polyreactivity (PSR sort gate)
QVQLVESGGALVQAGGSLRLSCAASGSTFVYYAMRWYRQTPGKERELVAAIRSDASTNYADSVKGRFTISRDNAKNTVYLQMNILKPEDTAVYYCNTAQLVSDEFDYWGQGTQVTVSS	low polyreactivity
QVQLVESGGALVQAGGSLRLSCAASGYTSILYAMGWYRQAPGKEMELVASITKSGDDTYYADSVKGRFTISRDNAKNTVYLQMNSLKPEDTAVYYCAAEYTYGDYSYVWYDYWGQGTQVTVSS	high polyreactivity
QVQLVESGGALVQAGGSLRLSCAASRITFTDNAMGWYRQAPGKERELVAAISSGASTYYADSVKGRFTISRDNAKNTVYLQMNSLKPEDSAVYYCATRQTYNYPWHYRYYYWGQGTQVTVSS	high polyreactivity
QVQLVESGGALVQAGGSLRLSCAPSGLTFSDYAMGWYRQAPGKEREFVAGISSGGSTYYADSVKGRFTISRDNAKNTVYFQMKSLKPEDTAVYFCAGTRYNSWPIKFDYWGQGTQVTVSS	high polyreactivity
QVQLVESGGALVQAGGSLRLSLADSGMTFSQNAMGWYRQAPGKERELVAAISSSGTSTYYADSVKGRFTISRDNAKNTVYLQMNSLKPEDTAVYYCNAPPGTFQWQGHSDYWGQGTQVTVSS	low polyreactivity
QVQLVESGGALVQAGRSLRLSCAASGRTFWVYAMGWYRQAPGKERELVAAIRWSAGTTYYADSVKGRFTISRDNAKNTVYLQMNSLKPEDTAVYYCAKRRYTAISYGYWGQGTKVTVSS	high polyreactivity
QVQLVESGGALVQARGSLRLSCAASGRTFVWYAMGWYRQAPGKERELVAAITLSGGSTYYADSVKGRFTISRDNAKNTVYLQMTSLKPEDTAVYYCAADGTYRPEDYDYWGQGTKVTVSS	low polyreactivity
QVQLVESGGCIVQAGGSLRLSCAASGRICYTNAMVWYRQAPGKERELVAVISWGGDTTYYADSVKGRFTISRDNANNTVYLQMNSLKPEDTAGYYCNADWGPPYEIYDSWGQGTQVTVSS	low polyreactivity
QVQLVESGGCIVQAGGSLRLSCSASGLLFYINPMGWYRQAPGKEREFVAGINRNGGSTYYADSVKGRFTISRDNALYSVYLQMNSLKPEDTAVYYCNADQYWDRYFSWGQGTQGTVSS	low polyreactivity
QVQLVESGGCLFQAGGSLRLSCAASGFIFGHNAMGWYRQAPGTERELVAAITWSGGRTYYADSVKGRFTISRDNAKNTVYLQMISLKPEDKAVDYCNRRGRWRKYDYWGQGTQVTVSS	high polyreactivity
QVQLVESGGCLLQAGGSLRLSCAASGYTFGKNAMGWYRPAPGKERELVARIRTNGGTTYYADSVKGRFTISRDIAKYTVYLQMYSLKPEDTAVDYCNAYRGYEYDYWGQGTHVTVSS	low polyreactivity
QVQLVESGGCLVHAGGSLRLSCAAYGSILKYNAIGWYIQAPGKERELVAAITSRGGSTYYADSVKGRFTISRDNAKNTVYLQMNSLKPEDTAVYYCNRVYLGYFRYDYWGQGTQVTVSS	high polyreactivity
QVQLVESGGCLVHAGGSLRVSSAASGITFILNAMGWYRQAHGKEREFVAAISTYRGNTYYADSVKGRFTISRDNVKNTFYLEMYSLKPEDTAVYYSNADLYFRQGDVDLLRYVYWVQGTQVTVSS	low polyreactivity
QVQLVESGGCLVKAGGSLRLSCAASGRIFLTNAIGWYRQAPGKESELVADISRAGSTYADSVKGRFTISRDNAKNTVYLQMNSLKPEDTAVYYCSADEYSPGDSRTRYDYWGQGTQVTVSS	low polyreactivity
QVQLVESGGCLVQAAGRLRLSSAASGSTFYGYAMGWYRQAPGKERQLVAAITVRGGSTYYADSVKGRFTISRDNAKNTVYLQMYSLKPEDTAVYYCNAYIVSGFYVYDYWGQGTQVTVSS	high polyreactivity
QVQLVESGGCLVQAGCSLRLSCAASGGTFDVNAMGWYRQAPGKERELVAAITWSGGNTYYADSVKGRFTISRDNAKNTVYLQMNSLKPEDTAVYYCATDFSPVYYTRYDYWGQGTQVTVSS	low polyreactivity
QVQLVESGGCLVQAGCSLRLSCAASGRIFSTYAMGWYRQAPGTERELVAAINKIGGSTYFADSVKGRFTISRDNAKNTVYLQMNSLKPEDTAVYYCAADAPYYPVRRYYYWGQGTQVTVSS	low polyreactivity
QVQLVESGGCLVQAGGRLRISSAASGSIFAINDIGWYRQAPGKERELVAAIRSGGRTYYADSVKGRFTISRDNAKNTVYLQMNSLKPEYTAVYYCNAGGKWIGSDNWGQGTQVTVSS	high polyreactivity
QVQLVESGGCLVQAGGRLRLSCAASGFIFHGYAMGWYRPAPGKERELVAAISSRGGTTYYADSVQGRFTISRDKAKTTVYLQMNSLKPEDSAVDDCAADKIRYITSPVPFYYWGQGTQVTVSS	high polyreactivity
QVQLVESGGCLVQAGGRLRLSSAASGGTFTFYAMGWYRQAPGKERELVATINWSGGSTYYADSVKGRFTISRDNAKNTVYLQMNSLKPEDTAVYYCNAAWPYKSVEYWGQGTQVTVSS	low polyreactivity
QVQLVESGGCLVQAGGSLRFSCAASGSTFGWYAMGWYRHAPGKERELVAAITSVGSTYYADYVKGRFRISRDNAKNTVYLQMNSLKPEDTAVYYCAKRFGSGWAWFGYWGQGTQVTVSS	low polyreactivity
QVQLVESGGCLVQAGGSLRLICAASGIILTQNAMGWYRQAPGKERELVAAITESGARTYYADSVKGRFTISRDNAKNTVYLQMNSLKPEDTAVYYCAAHTRTSGHNYWGQGTQVTVSS	low polyreactivity

Sequence	polyreactivity (PSR sort gate)
QVQLVESGGCLVQAGGSLRLIRDASGFIIRPYAMGWYRQAPGKEREFVAAITGGGSTYYADSVKGRFTISRDNAKNTVYLQMNSLKPEDTAVYYCNADRRRRSGGFAGWHFQRKDYWGQGTQVTVSS	low polyreactivity
QVQLVESGGCLVQAGGSLRLNCAASGGTFVNNDMGWYRQAPGKERELVAAIRSAGTTYYADSVKGRFTISRDNAKNSVYLQMNSLKPVDTAVYYCNADTTGYWSYGFQYYGEDYWGQGTQVTVSS	low polyreactivity
QVQLVESGGCLVQAGGSLRLSCAASGFTFGRNYMGWYRQAPGKEREFVASISGSGGRTYYADSVKGRFTISRDNAKNTVYLQMNSLQPEDTAVYYCAAYRYSAYLYWDEYGGQGTQVTVSS	high polyreactivity
QVQLVESGGCLVQAGGSLRLSCAASGFTFSSNAMGWYRQAPGKERELVAAISFNSTSTYYADSVKGRFTISRDNAKNTVYLQMNSLKPEDTAVYYCAADVPRVQSEPEYDYWGQGTQVTVSS	low polyreactivity
QVQLVESGGCLVQAGGSLRLSCAASGFTFTKYAMGWYRQAPGQERELVAAINRSGRTYYADSVKGRFTISRDNAKNTVYLQMNSLKPEDTAVYYCAADTRYQYSAYDYWGQGTQVTVSS	high polyreactivity
QVQLVESGGCLVQAGGSLRLSCAASGIIFGRYTMGWYRQAPGKERELVAAITSSGITYYADSVKGRVTISRDNAKNTVYLQMNSLKPEDTAVYYCNADYSSPGYYWPYDYWGQGTQVSVSS	low polyreactivity
QVQLVESGGCLVQAGGSLRLSCAASGIIFYYYAMGWSRQAPGKEREFVAGIRWSSGSTYYADSVKGRFTISRDNAKNTVYLQMNSLKPEDTAVYYCAAAYLSWYGGYYYWGQGSQVTVSS	low polyreactivity
QVQLVESGGCLVQAGGSLRLSCAASGITFPGNAMGWYRPATGKERELVAVIRKSGTSTYYADSVKGRFTISRDNAKNTVYLQMISLIPEDTAVYYCAAGGPSTLDDYWGHGTQVTVSS	low polyreactivity
QVQLVESGGCLVQAGGSLRLSCAASGITYLEYAMGWYIQAPGKERELVATINSGGSTNYADSVKGRFTISRDNAKNTVYLQMNSLKPEDTAVYYCAAVVSDYVWRYEYWGQGTQVTVSS	low polyreactivity
QVQLVESGGCLVQAGGSLRLSCAASGLIFAEYAMGWYRQAPGKERELVARITSGGSTDYADSVKGRFTISRDNAKNTVFLQMNSLKPEDTAVYYCAAAYAYWGQGTQVTVSS	low polyreactivity
QVQLVESGGCLVQAGGSLRLSCAASGLIFLGYAMGWYRQAPGKERELVASIRTGGSTSYADSVKGRFTISRDNAKNTVYLQMYSLKPEDTAVYYCAADRGRPNLPGDYWGQGTQVTVSS	low polyreactivity
QVQLVESGGCLVQAGGSLRLSCAASGLTFRGYAKGWYRPAPGKERELVAAITSSAGRTNYADSVKGRFTISRDNAKNTVYLQMNSLNPEDTAVYYCAAAHSYTTRWGYYKFNYWGQGTQVSVSS	high polyreactivity
QVQLVESGGCLVQAGGSLRLSCAASGLTFSRYAMGWYRQAPGKERELVASSSQGGGSTYYADSVKGRFTISRDNAKITVYFQMNSLIPEDTAVYYCAASWYYSLQRYGYWGQGTQETVSS	high polyreactivity
QVQLVESGGCLVQAGGSLRLSCAASGNTFRRNVMGWYRQAPGKERELVPAINRGGSTTYADSVKGRFTISRDNAMNTVYLQMNSLKPEDTAVYYCNAEKRGQSYRFDYWGQGSQVTVSS	high polyreactivity
QVQLVESGGCLVQAGGSLRLSCAASGRIFAYNAMGWYRQAPGKESELVAAITRGGSTNYADSVKGRFTISRDNAKNTVYLQMNSLKPEDTAVYYCAARRVDTRVHVRYRYYYWGQGTQVTVSS	high polyreactivity
QVQLVESGGCLVQAGGSLRLSCAASGRIFHSNAMGWYRQAPGKERELVAAISTAGSTYYADSVKGRFTISRDNAKNTVYLQMNSLKPEDTAVYYCNAESPWWWEYDSWGQGTQVTVSS	high polyreactivity
QVQLVESGGCLVQAGGSLRLSCAASGRIFVYYAMGWYRQAPGKERELVAGISLSGGSTYYADSVKGRFTISRDNAKNTVYLQMYSLKPEDTAVYDSAIEVNAGYYVWYDYWGQGTQVTVSS	low polyreactivity
QVQLVESGGCLVQAGGSLRLSCAASGRSFRLYAMGGYRQAPGKERELVAAITRGGRTNYADSVKGRFTISRDNAKNTVYLQMNSLKPEDTAVYYCAARYVERHTDYYYWGQGTQVTVSS	low polyreactivity
QVQLVESGGCLVQAGGSLRLSCAASGRTFDVYAMGWYRQAPGKERELVATIRSDGSTTYADSVKGRFTISRDNAKNTVYLQMNSLKPEDTAVYYCAADFRSGFSSSTTPVQSDWGQGTQVTVSS	low polyreactivity
QVQLVESGGCLVQAGGSLRLSCAASGRTFLANAMGWYRQAPGKERELVAAITWSGGRTNYADSVKGRFTISRDNAKNTVYLQMNSLKPEDTAVYYCAADIFYEQVVGGTDVGYHDFDYWGQGTQVTVSS	low polyreactivity
QVQLVESGGCLVQAGGSLRLSCAASGRTFYFYTMGWYRQAPGKERQLVATIRWSAGSTYYADSVKGRFTISRDNAKNTVYLQMNSLKPEDTAVYYCNADPYVYSSWQYGYWGQGTQVTVSS	high polyreactivity
